Columns and labels:
Assay in all cases: purified protein
[1] = system: CC(=O)Oc1ccc([N+](=O)[O-])cc1; conditions: 50 mM Tris-HCl pH 8.0, 1% acetonitrile
[2] = system: CCCC(=O)Oc1ccc([N+](=O)[O-])cc1; conditions: 50 mM Tris-HCl pH 8.0, 1% acetonitrile
[3] = system: CCCCCC(=O)Oc1ccc([N+](=O)[O-])cc1; conditions: 50 mM Tris-HCl pH 8.0, 1% acetonitrile
[4] = system: CCCCOC(=O)c1ccccc1C(=O)OCCCC; conditions: 50 mM Tris-HCl pH 8.0, 37 °C, substrate 0.1-10 mM (unit defined at 25 °C)
[5] = system: CCCCOC(=O)c1ccccc1C(=O)OCc1ccccc1; conditions: 50 mM Tris-HCl pH 8.0, 37 °C, substrate 0.1-10 mM (unit defined at 25 °C)
CCCCOC(=O)c1ccccc1C(=O)O = conditions: 50 mM Tris-HCl pH 8.0, 37 °C, substrate 0.1-10 mM (unit defined at 25 °C)
CCOC(=O)c1ccccc1C(=O)O = conditions: 50 mM Tris-HCl pH 8.0, 37 °C, substrate 0.1-10 mM (unit defined at 25 °C)
COC(=O)c1ccccc1C(=O)OC = conditions: 50 mM Tris-HCl pH 8.0, 37 °C, substrate 0.1-10 mM (unit defined at 25 °C)
COC(=O)c1ccccc1C(=O)O = conditions: 50 mM Tris-HCl pH 8.0, 37 °C, substrate 0.1-10 mM (unit defined at 25 °C)
[6] = system: O=C(O)c1ccccc1C(=O)OCc1ccccc1; conditions: 50 mM Tris-HCl pH 8.0, 37 °C, substrate 0.1-10 mM (unit defined at 25 °C)
[7] = system: O=C(O)c1ccccc1C(=O)Oc1ccccc1; conditions: 50 mM Tris-HCl pH 8.0, 37 °C, substrate 0.1-10 mM (unit defined at 25 °C)
[8] = system: O=C(Oc1ccccc1)c1ccccc1C(=O)Oc1ccccc1; conditions: 50 mM Tris-HCl pH 8.0, 37 °C, substrate 0.1-10 mM (unit defined at 25 °C)

EstM2 (uncultured bacterium)
Km [1]: 410 ± 10 µM | Vmax [1]: 748 µmol/min/mg | kcat/Km [1]: 1.29e+06 ± 32500 M⁻¹ s⁻¹ | Km [2]: 440 ± 10 µM | Vmax [2]: 905 µmol/min/mg | kcat/Km [2]: 1.46e+06 ± 34200 M⁻¹ s⁻¹ | Km [3]: 280 ± 20 µM | Vmax [3]: 71.4 µmol/min/mg | kcat/Km [3]: 183000 ± 10700 M⁻¹ s⁻¹ | Km [4]: 620 ± 40 µM | Vmax [4]: 72.9 µmol/min/mg | kcat/Km [4]: 84200 ± 5100 M⁻¹ s⁻¹ | Km [5]: 640 ± 40 µM | Vmax [5]: 57.6 µmol/min/mg | kcat/Km [5]: 64500 ± 3800 M⁻¹ s⁻¹ | Km (CCCCOC(=O)c1ccccc1C(=O)O): 1260 ± 80 µM | Vmax (CCCCOC(=O)c1ccccc1C(=O)O): 56.7 µmol/min/mg | kcat/Km (CCCCOC(=O)c1ccccc1C(=O)O): 32200 ± 2200 M⁻¹ s⁻¹ | Km (CCOC(=O)c1ccccc1C(=O)O): 1730 ± 130 µM | Vmax (CCOC(=O)c1ccccc1C(=O)O): 54.2 µmol/min/mg | kcat/Km (CCOC(=O)c1ccccc1C(=O)O): 22500 ± 1600 M⁻¹ s⁻¹ | Km (COC(=O)c1ccccc1C(=O)OC): 1020 ± 80 µM | Vmax (COC(=O)c1ccccc1C(=O)OC): 42.1 µmol/min/mg | kcat/Km (COC(=O)c1ccccc1C(=O)OC): 29600 ± 2300 M⁻¹ s⁻¹ | Km (COC(=O)c1ccccc1C(=O)O): 1950 ± 150 µM | Vmax (COC(=O)c1ccccc1C(=O)O): 41.3 µmol/min/mg | kcat/Km (COC(=O)c1ccccc1C(=O)O): 15200 ± 1200 M⁻¹ s⁻¹ | Km [6]: 1120 ± 80 µM | Vmax [6]: 43.8 µmol/min/mg | kcat/Km [6]: 28000 ± 2000 M⁻¹ s⁻¹ | Km [7]: 1060 ± 80 µM | Vmax [7]: 37.6 µmol/min/mg | kcat/Km [7]: 25400 ± 1900 M⁻¹ s⁻¹ | Vmax [8]: 45.1 µmol/min/mg | kcat/Km [8]: 54800 ± 3600 M⁻¹ s⁻¹

— publication PMC7092541, “Characterization of a novel family VIII esterase EstM2 from soil metagenome capable of hydrolyzing estrogenic phthalates” (Microbial Cell Factories, 2020)
